Measurements from patent publication US20260125477A1 (BEIJING MABWORKS BIOTECH, published 2026).

Tests used:
Test in all cases: SPR (Biacore T200), antibody captured on Protein A chip, response at 200 nM antigen
[1] = target: T1, recombinant human CD80 protein (human B7-1/CD80 protein, with His tag) (human, UniProt P33681 35-242)
T1 construct: Bought protein
T1 sequence (looked up): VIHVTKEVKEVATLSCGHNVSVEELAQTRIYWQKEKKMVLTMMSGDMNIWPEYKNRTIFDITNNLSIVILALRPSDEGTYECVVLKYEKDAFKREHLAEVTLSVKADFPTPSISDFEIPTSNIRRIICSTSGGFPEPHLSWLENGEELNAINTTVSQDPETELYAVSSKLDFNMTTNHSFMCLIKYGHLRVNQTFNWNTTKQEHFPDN
Experimental: (§1) The anti-human B7-H3 antibodies were tested for their binding capability to B7 family proteins by SPR using Biacore T200 biosensor (Biacore, US) provided with a pre-fixed Protein A sensor chip.
(§2) The dissociation was monitored for 600 sec. The data was analyzed using Biacore 8k evaluation software version 3.0, to obtain the binding responses, and the protein concentration-binding response curves were plotted, to determine the cross-reaction of the anti-human B7-H3 antibodies to the B7 family proteins.

[2] = target: T2, human B7-2/CD86 protein, with His tag (human, UniProt P42081 26-247, limits assumed)
T2 construct: Bought protein
T2 sequence (looked up): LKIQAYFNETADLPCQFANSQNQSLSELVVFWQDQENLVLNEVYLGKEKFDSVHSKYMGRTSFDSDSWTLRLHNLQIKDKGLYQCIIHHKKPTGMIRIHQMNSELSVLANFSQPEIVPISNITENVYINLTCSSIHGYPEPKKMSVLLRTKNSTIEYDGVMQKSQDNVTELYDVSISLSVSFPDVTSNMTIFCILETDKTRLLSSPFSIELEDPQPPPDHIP
Experimental: as §1, §2

[3] = target: T3, human PD-L2/B7-DC protein, with His tag (human, UniProt Q9BQ51 20-219, limits assumed)
T3 construct: Bought protein
T3 sequence (looked up): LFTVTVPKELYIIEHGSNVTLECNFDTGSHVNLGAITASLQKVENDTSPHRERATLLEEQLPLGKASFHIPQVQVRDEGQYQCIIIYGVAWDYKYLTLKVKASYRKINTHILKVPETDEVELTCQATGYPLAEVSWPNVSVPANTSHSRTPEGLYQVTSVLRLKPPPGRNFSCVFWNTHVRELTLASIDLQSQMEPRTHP
Experimental: as §1, §2

[4] = target: T4, human B7-H2/ICOSLG protein, with His tag (human, UniProt O75144 19-258, limits assumed)
T4 construct: Bought protein
T4 sequence (looked up): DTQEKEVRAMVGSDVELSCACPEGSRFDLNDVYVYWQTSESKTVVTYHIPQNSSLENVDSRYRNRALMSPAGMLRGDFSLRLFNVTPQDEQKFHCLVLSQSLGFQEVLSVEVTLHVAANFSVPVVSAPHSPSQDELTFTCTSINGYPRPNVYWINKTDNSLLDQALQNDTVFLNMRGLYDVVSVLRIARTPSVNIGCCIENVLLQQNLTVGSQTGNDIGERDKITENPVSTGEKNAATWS
Experimental: as §1, §2

[5] = target: T5, human B7-H4 protein, with His tag (MALS verified) (human, UniProt Q7Z7D3 29-258, limits assumed)
T5 construct: Bought protein
T5 sequence (looked up): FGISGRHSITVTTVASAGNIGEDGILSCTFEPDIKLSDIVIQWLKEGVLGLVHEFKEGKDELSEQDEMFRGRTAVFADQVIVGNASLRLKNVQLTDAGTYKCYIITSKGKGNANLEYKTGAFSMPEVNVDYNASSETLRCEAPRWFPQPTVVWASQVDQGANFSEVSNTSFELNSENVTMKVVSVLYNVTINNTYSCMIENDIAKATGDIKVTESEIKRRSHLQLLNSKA
Experimental: as §1, §2

[6] = target: T6, human B7-H5/Gi24/VISTA protein, with His tag (MALS verified) (human, UniProt Q9H7M9 33-194)
T6 construct: Bought protein
T6 sequence (looked up): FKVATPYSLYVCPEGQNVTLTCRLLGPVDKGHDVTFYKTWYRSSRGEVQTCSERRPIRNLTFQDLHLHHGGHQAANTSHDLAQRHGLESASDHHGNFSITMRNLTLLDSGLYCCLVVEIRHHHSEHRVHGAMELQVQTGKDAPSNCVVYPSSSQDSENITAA
Experimental: as §1, §2

[7] = target: T7, human B7-H6/NCR3LG1 protein, with His tag (human, UniProt Q68D85 25-262, limits assumed)
T7 construct: Bought protein
T7 sequence (looked up): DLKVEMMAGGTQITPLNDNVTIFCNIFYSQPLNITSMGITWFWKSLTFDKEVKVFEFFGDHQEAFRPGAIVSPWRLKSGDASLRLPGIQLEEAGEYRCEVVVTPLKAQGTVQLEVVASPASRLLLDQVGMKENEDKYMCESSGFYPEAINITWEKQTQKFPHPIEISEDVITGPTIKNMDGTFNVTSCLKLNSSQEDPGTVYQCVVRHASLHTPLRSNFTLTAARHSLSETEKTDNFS
Experimental: as §1, §2

[8] = target: T8, recombinant human B7-H3 (4Ig) protein, with His tag (human, UniProt Q5ZPR3 29-461, limits assumed)
T8 construct: Bought protein; also called human B7-H3 (4Ig)/B7-H3b protein
T8 sequence (looked up): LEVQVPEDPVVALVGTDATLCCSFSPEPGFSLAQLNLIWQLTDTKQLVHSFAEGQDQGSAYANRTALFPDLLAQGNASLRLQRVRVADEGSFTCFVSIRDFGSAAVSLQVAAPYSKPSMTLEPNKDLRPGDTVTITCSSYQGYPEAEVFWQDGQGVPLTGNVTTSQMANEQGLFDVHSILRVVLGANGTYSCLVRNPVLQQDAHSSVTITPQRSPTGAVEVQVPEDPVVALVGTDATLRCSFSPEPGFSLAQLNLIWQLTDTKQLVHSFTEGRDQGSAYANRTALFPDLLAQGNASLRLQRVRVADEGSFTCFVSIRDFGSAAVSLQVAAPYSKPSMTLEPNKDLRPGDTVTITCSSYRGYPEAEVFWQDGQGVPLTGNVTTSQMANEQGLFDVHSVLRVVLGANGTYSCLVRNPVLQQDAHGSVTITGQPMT
Experimental: as §1, §2

Binder | Response (RU) [1] | Response (RU) [2] | Response (RU) [3] | Response (RU) [4] | Response (RU) [5] | Response (RU) [6] | Response (RU) [7] | Response (RU) [8]
10D7 (antibody, human IgG1, kappa, V domains shown, also called 10D7-WT; Ab10D7) VH: QVQLVQSGPGLVKPSETLSLTCTVSGGSISRSSYYWGWIRQPPGKGLEWIGNIFYAGSTYYNPSLKSRVTISVDTSKNQFSLKLSSVTAADTAVYYCARRITGTTGWFDPWGQGTLVTVSS VL: DIQLTQSPSSLSASVGDRVTITCRASQGIRNDLGWYQQKPGKAPKLLIYAASTLQSGVPSRFSGSGSGTDFTLTISSLQPEDFATYYCLQDYNYPRTFGQGTKVEIKR | 0.2 RU | -0.2 RU | -0.2 RU | -0.1 RU | 0.3 RU | 0.6 RU | -0.5 RU | 41.9 RU
Enoblituzumab (antibody, human IgG1, kappa, V domains shown, Humanized anti-B7-H3 antibody of MacroGenics with optimised Fc, used as the positive control; also called AbEno; enoblituzumab-IgG1-Mut) VH: EVQLVESGGGLVQPGGSLRLSCAASGFTFSSFGMHWVRQAPGKGLEWVAYISSDSSAIYYADTVKGRFTISRDNAKNSLYLQMNSLRDEDTAVYYCGRGRENIYYGSRLDYWGQGTTVTVSS VL: DIQLTQSPSFLSASVGDRVTITCKASQNVDTNVAWYQQKPGKAPKALIYSASYRYSGVPSRFSGSGSGTDFTLTISSLQPEDFATYYCQQYNNYPFTFGQGTKLEIKR | -1.8 RU | -1.5 RU | -1.2 RU | -2 RU | -2 RU | -1.8 RU | -2.2 RU | 25.7 RU
10F5 (antibody, human IgG1, kappa, V domains shown, also called Ab10F5) VH: QVQLVQSGAEVKKPGSSVKVSCKASGGTFSSQAISWVRQAPGQGLEWMGRIIPMLGIGDYAQSFQGRVTITADKSTSTAYLEVSSLGSEDTAVYYCAREGIAALGTNYYYGMDVWGQGTAVTVSS VL: EIVMTQSPSSVSASVGDRVTITCRASQGISRWLAWYQQKPGKAPKLLIYVASSLQSGVPSRFSGSGSGTDFTLTISSLQPEDFATYYCQQANSFPFTFGPGTKVDIRR | 0.7 RU | 0.5 RU | 0 RU | 0.9 RU | 0.3 RU | 0.6 RU | -0.4 RU | 32.5 RU
6B5 (antibody, human IgG1, kappa, V domains shown, also called 6B5-WT; Ab6B5) VH: QVQLVESGPGLVKPSQTLSLTCTVSDGSISSGGYYWSWIRQHPGKGLEWIGYIYYSGGTYYSPSLKSRVTISVDTSKNQFSLKLTSVTAADTAVYYCARRAGYSSSFDSWGQGILVTVSS VL: EIVLTQSPLSLPVTPGEPASISCRSSQSLLYSNGYTYLDWYLQKPGQSPQFLIYLGFNRASGVPDRFSGSGSGTDFTLKISRVEAEDVGVYYCMQGLQTPYTFGQGTKLEIKR | 0.6 RU | 0.3 RU | -0.2 RU | 0.9 RU | 0.5 RU | 0.9 RU | -0.2 RU | 34.8 RU
